Sequences and labels used below:
B1: Azoarcus group I ribozyme (parent)
chain: GUGCCUUGCGCCGGGAAACCACGCAAGGGAUGGUGUCAAAUUCGGCGAAACCUAAGCGCCCGCCCGGGCGUAUGGCAACGCCGAGCCAAGCUUCGGCGCCUGCGCCGAUGAAGGUGUAGAGACUAGACGGCACCCACCUAAGGCAAACGCUAUGGUGAAGGCAUAGUCCAGGGAGUGGCGAAAGUCACACAAACCGG

Variants of B1 are the subject of the data set. The data set can be described thus: reverse-splicing fitness (ratio to wild type); higher = more active; in vitro selection; Mg2+ level not given. In a few lines: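 An in vitro group I ribozyme library with randomized positions was T7-transcribed and gel-purified. In triplicate, 10 pmol RNA in EPPS pH 7.5 was reacted with 50 pmoles of a 30-nt RNA substrate for 1 h at 37 °C across several added MgCl2 levels (1–48 mM), then stopped with EDTA. Products were reverse transcribed from a substrate-complementary primer, PCR-amplified and sequenced (HiSeq 4000). Fitness is a variant's read proportion after selection over that before, normalised to wild type.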
As to GUGCCUUGCGCCGGGAAACCACGCAAGGGAUGGUGUCAAAUUCGGCGAAACCUAAGCGCCCGCCCGGGCGUAUGGCAACGCCGAGCCAAGCUUCGGCGCCUGCGCCGAUGAAGGUGUAGCGACUAGACGGCACCCACCUAAGGCUAACGUUAUGGUGAAGGCAUAGUCGAGGGAGGGGCGAAAGUCACACAAACCGG [A120C A145U C150U C169G U176G], the reverse-splicing fitness worked out at 0.00463.
The result for GUGCCUUGCGCCGGGAAACCACGCAAGGGAUGGUGUCAAAUUCGGCGAAACCUAAGCGCCCGCCCGGGCGUAUGGCAACGCCGAGCCAAGCUUCGGCGCCUGCGCCGAUGAAGGUGUAGCGACUAGACGGCACCCACCUAAGGCUAACGUUAUGGUGAAGGCAUAGUCGAGGGAGAGGCGAAAGUCACACAAACCGG [A120C A145U C150U C169G U176A] reads 0.0111; that for GUGCCUUGCGCCGGGAAACCACGCAAGGGAUGGUGUCAAAUUCGGCGAAACCUAAGCGCCCGCCCGGGCGUAUGGCAACGCCGAGCCAAGCUUCGGCGCCUGCGCCGAUGAAGGUGUAGCGACUAGACGGCACCCACCUAAGGCUAACGUUAUGGUGAAGGCAUAGUCGAGGGAGCGGCGAAAGUCACACAAACCGG [A120C A145U C150U C169G U176C], 0.0117; that for GUGCCUUGCGCCGGGAAACCACGCAAGGGAUGGUGUCAAAUUCGGCGAAACCUAAGCGCCCGCCCGGGCGUAUGGCAACGCCGAGCCAAGCUUCGGCGCCUGCGCCGAUGAAGGUGUAGCGACUAGACGGCACCCACCUAAGGCUAACGAUAUGGUGAAGGCAUAGUCUAGGGAGGGGCGAAAGUCACACAAACCGG [A120C A145U C150A C169U U176G], 0.0079.
The result for GUGCCUUGCGCCGGGAAACCACGCAAGGGAUGGUGUCAAAUUCGGCGAAACCUAAGCGCCCGCCCGGGCGUAUGGCAACGCCGAGCCAAGCUUCGGCGCCUGCGCCGAUGAAGGUGUAGCGACUAGACGGCACCCACCUAAGGCUAACGGUAUGGUGAAGGCAUAGUCCAGGGAGUGGCGAAAGUCACACAAACCGG [A120C A145U C150G] reads 0.262; that for GUGCCUUGCGCCGGGAAACCACGCAAGGGAUGGUGUCAAAUUCGGCGAAACCUAAGCGCCCGCCCGGGCGUAUGGCAACGCCGAGCCAAGCUUCGGCGCCUGCGCCGAUGAAGGUGUAGCGACUAGACGGCACCCACCUAAGGCUAACGUUAUGGUGAAGGCAUAGUCCAGGGAGUGGCGAAAGUCACACAAACCGG [A120C A145U C150U], 0.744.
The result for GUGCCUUGCGCCGGGAAACCACGCAAGGGAUGGUGUCAAAUUCGGCGAAACCUAAGCGCCCGCCCGGGCGUAUGGCAACGCCGAGCCAAGCUUCGGCGCCUGCGCCGAUGAAGGUGUAGCGACUAGACGGCACCCACCUAAGGCUAACGUUAUGGUGAAGGCAUAGUCUAGGGAGUGGCGAAAGUCACACAAACCGG [A120C A145U C150U C169U] reads 0.329; that for GUGCCUUGCGCCGGGAAACCACGCAAGGGAUGGUGUCAAAUUCGGCGAAACCUAAGCGCCCGCCCGGGCGUAUGGCAACGCCGAGCCAAGCUUCGGCGCCUGCGCCGAUGAAGGUGUAGCGACUAGACGGCACCCACCUAAGGCUAACGUUAUGGUGAAGGCAUAGUCAAGGGAGUGGCGAAAGUCACACAAACCGG [A120C A145U C150U C169A], 0.0252; that for GUGCCUUGCGCCGGGAAACCACGCAAGGGAUGGUGUCAAAUUCGGCGAAACCUAAGCGCCCGCCCGGGCGUAUGGCAACGCCGAGCCAAGCUUCGGCGCCUGCGCCGAUGAAGGUGUAGCGACUAGACGGCACCCACCUAAGGCUAACGUUAUGGUGAAGGCAUAGUCGAGGGAGUGGCGAAAGUCACACAAACCGG [A120C A145U C150U C169G], 0.0196.
In the case of GUGCCUUGCGCCGGGAAACCACGCAAGGGAUGGUGUCAAAUUCGGCGAAACCUAAGCGCCCGCCCGGGCGUAUGGCAACGCCGAGCCAAGCUUCGGCGCCUGCGCCGAUGAAGGUGUAGCGACUAGACGGCACCCACCUAAGGCUAACGAUAUGGUGAAGGCAUAGUCCAGGGAGGGGCGAAAGUCACACAAACCGG [A120C A145U C150A U176G], the reverse-splicing fitness stood at 0.0668.
In the case of GUGCCUUGCGCCGGGAAACCACGCAAGGGAUGGUGUCAAAUUCGGCGAAACCUAAGCGCCCGCCCGGGCGUAUGGCAACGCCGAGCCAAGCUUCGGCGCCUGCGCCGAUGAAGGUGUAGCGACUAGACGGCACCCACCUAAGGCUAACGAUAUGGUGAAGGCAUAGUCCAGGGAGAGGCGAAAGUCACACAAACCGG [A120C A145U C150A U176A] it was 0.191.
In the case of GUGCCUUGCGCCGGGAAACCACGCAAGGGAUGGUGUCAAAUUCGGCGAAACCUAAGCGCCCGCCCGGGCGUAUGGCAACGCCGAGCCAAGCUUCGGCGCCUGCGCCGAUGAAGGUGUAGCGACUAGACGGCACCCACCUAAGGCUAACGAUAUGGUGAAGGCAUAGUCCAGGGAGCGGCGAAAGUCACACAAACCGG [A120C A145U C150A U176C] it was 0.179; in that of GUGCCUUGCGCCGGGAAACCACGCAAGGGAUGGUGUCAAAUUCGGCGAAACCUAAGCGCCCGCCCGGGCGUAUGGCAACGCCGAGCCAAGCUUCGGCGCCUGCGCCGAUGAAGGUGUAGCGACUAGACGGCACCCACCUAAGGCUAACGGUAUGGUGAAGGCAUAGUCCAGGGAGAGGCGAAAGUCACACAAACCGG [A120C A145U C150G U176A], 0.137; in that of GUGCCUUGCGCCGGGAAACCACGCAAGGGAUGGUGUCAAAUUCGGCGAAACCUAAGCGCCCGCCCGGGCGUAUGGCAACGCCGAGCCAAGCUUCGGCGCCUGCGCCGAUGAAGGUGUAGCGACUAGACGGCACCCACCUAAGGCUAACGGUAUGGUGAAGGCAUAGUCCAGGGAGGGGCGAAAGUCACACAAACCGG [A120C A145U C150G U176G], 0.0206.
In the case of GUGCCUUGCGCCGGGAAACCACGCAAGGGAUGGUGUCAAAUUCGGCGAAACCUAAGCGCCCGCCCGGGCGUAUGGCAACGCCGAGCCAAGCUUCGGCGCCUGCGCCGAUGAAGGUGUAGCGACUAGACGGCACCCACCUAAGGCUAACGGUAUGGUGAAGGCAUAGUCCAGGGAGCGGCGAAAGUCACACAAACCGG [A120C A145U C150G U176C] it was 0.156.

For the origin of these results see the RNAGym collection of RNA variant scans (doi:10.1093/molbev/msab373).
